Laboratory results as given in publication PMC9468336, “The choanoflagellate pore-forming lectin SaroL-1 punches holes in cancer cells by targeting the tumor-related glycosphingolipid Gb3” (Communications Biology, 2022).
Values joined by “and” are separate entries in the source; they are usually repeats but may differ in a detail not shown here. Identical values can stand only once.

Experiments:
H1299 cells = experiment: Cell proliferation (MTT) assay; assay type: cell-based, human
Description: The human lung epithelial cell line H1299 (American Type Culture Collection, CRL-5803) was cultured in a complete medium, consisting of Roswell Park Memorial Institute (RPMI) medium supplemented with 10% fetal calf serum (FCS) and 2 mM L-glutamine at 37 °C and 5% CO2. Cells were stimulated with different concentrations of SaroL-1 in a complete medium for indicated time points.
To investigate the cytotoxic effect of SaroL-1 on human cells, H1299 cells were treated with increasing concentrations of SaroL-1 for 24 h in a standard MTT assay. For the depletion of Gb3 from the plasma membrane, H1299 cells were treated with 2 µM PPMP for 72 h before the experiment. 3.5 × 10^4 cells per well were transferred to a 96-well plate with a U-bottom. The cells were centrifuged at 1600 × g for 3 min at RT. The cell pellet was re-suspended in 100 μL of variously concentrated protein solutions (3, 14, 27, 68, 135, 270, 680, 1360 nM) and transferred to a 96-well flat-bottomed plate. The cells were incubated for 24 h at 37 °C. Subsequently, 10 μL of MTT labelling solution (MTT Cell Proliferation Kit, Roche) was added to each well, and the cells were incubated for 4 h at 37 °C. Then, 100 μL of the solubilisation reagent was added to each well, and the plate was incubated at 37 °C overnight. The next day, the absorbance of the samples was measured at 550 nm using a BioTek microplate reader. To assess SaroL-1 cytotoxicity in the presence of the soluble sugar PNPG, 3.5 × 10^4 cells per well were transferred to a 96-well plate with a U-bottom. Variously concentrated protein solutions (3, 14, 27, 68, 135, 270, 680, 1360 nM) were preincubated with 10 mM PNPG dissolved in complete medium, for 15 min at RT. The cells were centrifuged at 1600 × g for 3 min at RT. Next, the cell pellet was re-suspended in 100 μL protein solution and transferred to a 96-well flat-bottomed plate. The cells were incubated for 24 h at 37 °C, and the MTT assay was performed as described above. The data was further analyzed using GraphPad Prism software.

[1] = Dextran influx into GUVs (pore formation); assay type: biochemical; settings: for GUVs filled with dextran-AF488, average %: 3 kDa dextran; for GUVs filled with 70 kDa FITC-dextran, average %: 70 kDa dextran
Source text: (§1) GUVs were composed of 1,2-dioleoyl-sn-glycero-3-phosphocholine (DOPC), cholesterol (both AvantiPolar Lipids, United States), Atto 647 N 1,2-dioleoyl-sn-glycero-3-phosphoethanolamine (DOPE; Sigma-Aldrich), and one of the following glycolipids at a molar ratio of 64.7:30:0.3:5. The glycolipids are globotriaosylceramide (Gb3, Matreya), FSL-Gb3 (Function-Spacer-Lipid with globotriaosyl saccharide), and corresponding FSL-isoGb3 (Function-Spacer-Lipid with iso-globotriaosyl saccharide) synthetized as previously described[84],[85], FSL-A(tri) (Function-Spacer-Lipid with blood group A trisaccharide; Sigma-Aldrich), FSL-B(tri) (Function-Spacer-Lipid with blood group B trisaccharide; Sigma-Aldrich) or lactosylceramide (LC, Sigma-Aldrich).
GUVs were prepared by the electroformation method as earlier described. Briefly, lipids dissolved in chloroform of a total concentration of 0.5 mg/mL were spread on indium tin oxid-covered (ITO) glass slides and dried in a vacuum for at least 1 h or overnight. Two ITO slides were assembled to create a chamber filled with sucrose solution adapted to the osmolarity of the imaging buffer of choice, either HBSS (live-cell imaging) or PBS (GUVs only imaging). Then, an alternating electrical field with a field strength of 1 V/mm was implemented for 2.5 h at RT. Later we observed the GUVs in chambers manually built as described.
Dextran Alexa Fluor 488 (Dextran-AF488) with a MW of 3 kDa (Thermo Fischer) or 70 kDa FITC-dextran (Sigma-Aldrich) was added to the observation chamber (0.02 mg/mL) in PBS buffer together with 200 nM SaroL-1. Then wt Gb3-containing GUVs (40 µL) were added for imaging and monitoring of pore-formation. Dextran-AF488 was present in the GUVs’ surrounding solution. For PNPG treatment, 200 nM of SaroL-1 was pre-incubated with 10 mM PNPG dissolved in DMSO for 15 min at RT in the observation chamber. Directly after, dextran-AF488 (0.02 mg/mL) and 40 µL wt Gb3-containing GUVs were added to the observation chamber and monitored using confocal microscopy.

[2] = Confocal imaging of SaroL-1 binding to FSL-A GUVs; settings: 200 nM SaroL-1, FSL-A GUVs
Source text: as §1
GUVs were prepared by the electroformation method as earlier described. Briefly, lipids dissolved in chloroform of a total concentration of 0.5 mg/mL were spread on indium tin oxid-covered (ITO) glass slides and dried in a vacuum for at least 1 h or overnight. […]
Samples of GUVs and SaroL-1 were imaged using a confocal fluorescence microscope (Nikon Eclipse Ti-E inverted microscope equipped with Nikon A1R confocal laser scanning system, 60x oil immersion objective, NA = 1.49 and four laser lines: 405 nm, 488 nm, 561 nm, and 640 nm). […]

rabbit erythrocytes = experiment: Hemolytic assay (HA); assay type: cell-based
Description: Both HA and IHA assays were performed in U-shaped 96-well microtiter plates. In both cases, a control negative experiment was performed with Buffer A added to erythrocyte solution (2% final concentration), and the resulting value was subtracted from all data.
SaroL-1 with an initial concentration of 27 μM was diluted by serial 2-fold dilution in Buffer A. Rabbit erythrocytes were purchased from Atlantis France and used without further washing. The erythrocytes were diluted to a 4% solution in 150 mM NaCl. Protein solution and rabbit erythrocytes were mixed together in a 1:1 ratio and incubated for 1 h at 37 °C. After the samples were centrifuged, 2600 × g for 15 min at RT and the absorbance of the supernatant was measured at 540 nm by a Tecan reader.

[3] = 200 nM SaroL-1, 30 min, listed as SaroL1
[4] = 200 nM SaroL-1, 120 min, listed as SaroL1

## O=[N+]([O-])c1ccc(O[C@H]2O[C@H](CO)[C@H](O)[C@H](O)[C@H]2O)cc1 [PNPG, p-nitrophenyl-α-D-galactopyranoside]
H1299 cells; SaroL-1 (3-1358 nM) pre-incubated with 10 mM PNPG, 24 h
  reduction of SaroL-1-induced cell death: > 90%
[1]; 200 nM SaroL-1 pre-treated with 10 mM PNPG, 0 min
  GUVs filled with dextran-AF488, average %: 0%
[1]; 200 nM SaroL-1 pre-treated with 10 mM PNPG, 60 min
  GUVs filled with dextran-AF488, average %: 0.4205%
[1]; 200 nM SaroL-1 pre-treated with 10 mM PNPG, 120 min
  GUVs filled with dextran-AF488, average %: 4% and 4.251%

B1: SaroL-1: Recombinant pore-forming lectin of Salpingoeca rosetta (UniProt F2UID9, 329 amino acids) with β-trefoil and aerolysin-like domains (protein)
chain: MSSTFEPATDSPLPVPGVQYFLQHVQSGKYVHPHGGSDMPGNDTALVLHHGFDEKRDALRWVFVNDAENKHQLKHYSSGKFVHPKGGKVGKEATLVVHSSPGRPETMIEMVQEDGRTYLRHTDSDYYVHPHGGSPNPGDNTRLVYYSGYRPSLAFLAIPAETLFVDRIEIHQAQALESINTITSLSDEHRNDTDQPVQTSISVALEESLQDSAQLSFERCFGLKVGSEFEVGLPLVGKTKVSVQFSGSWKSSTIKGEVRTSAVKVQINEHVTIPPGKCVQIRIDTRRCTKTAPATMYLRTASGIEVQRETTVTSTYHYDQEVHVVPVTN
modifications: left off: His6, N-terminal, state not stated
notes: Recombinant pore-forming lectin of Salpingoeca rosetta (UniProt F2UID9, 329 amino acids) with β-trefoil and aerolysin-like domains
[2]
  binding to GUVs: No binding
Rabbit erythrocytes; SaroL-1 7 nM
  Hemolysis MEAN %: -2.217%
Rabbit erythrocytes; SaroL-1 14 nM
  Hemolysis MEAN %: -0.8961%
Rabbit erythrocytes; SaroL-1 27 nM
  Hemolysis MEAN %: -0.5487%
Rabbit erythrocytes; SaroL-1 55 nM
  Hemolysis MEAN %: 5.667%
Rabbit erythrocytes; SaroL-1 110 nM
  Hemolysis MEAN %: 24.3716%
Rabbit erythrocytes; SaroL-1 217 nM
  Hemolysis MEAN %: 59.5625%
Rabbit erythrocytes; SaroL-1 423 nM
  Hemolysis MEAN %: 85.1119%
Rabbit erythrocytes; SaroL-1 843 nM
  Hemolysis MEAN %: 95.7679%
Rabbit erythrocytes; SaroL-1 1680 nM
  Hemolysis MEAN %: 93.9729%
Rabbit erythrocytes; SaroL-1 3400 nM
  Hemolysis MEAN %: 95.1481%
Rabbit erythrocytes; SaroL-1 6790 nM
  Hemolysis MEAN %: 95.7781%
Rabbit erythrocytes; SaroL-1 13590 nM
  Hemolysis MEAN %: 100%
H1299 cells; 24 h, 1.36 µM SaroL-1
  reduction of cell viability: ~ 87%
H1299 cells; 24 h, FCS-containing medium, read-out: concentration at which the percentage of viable cells decreased by half
  IC50: 271 nM
H1299 cells; H1299 pre-treated with PPMP for 72 h, 24 h with SaroL-1
  cytotoxicity on Gb3-depleted cells (in words): remarkably reduced
[1]; 200 nM SaroL-1, 0 min
  GUVs filled with dextran-AF488, average %: 11.106%
  GUVs filled with 70 kDa FITC-dextran, average %: 4.422%
[1]; 200 nM SaroL-1, 30 min
  GUVs filled with dextran-AF488, average %: 45%
  GUVs filled with 70 kDa FITC-dextran, average %: 17%
[1]; [3]
  GUVs filled with dextran-AF488, average %: 45.1678%
  GUVs filled with 70 kDa FITC-dextran, average %: 16.9551%
[1]; 200 nM SaroL-1, 60 min
  GUVs filled with dextran-AF488, average %: 57.8615%
  GUVs filled with 70 kDa FITC-dextran, average %: 29%
[1]; 200 nM SaroL-1, 120 min
  GUVs filled with dextran-AF488, average %: 69%
  GUVs filled with 70 kDa FITC-dextran, average %: 29%
[1]; [4]
  GUVs filled with dextran-AF488, average %: 69.3211%
  GUVs filled with 70 kDa FITC-dextran, average %: 29.7507%
[1]; 200 nM SaroL-1, 60 min, listed as SaroL1
  GUVs filled with 70 kDa FITC-dextran, average %: 28.4248%
